Measurements from patent publication US7169567.
Values joined by “and” are separate entries in the source; they are usually repeats but may differ in a detail not shown here. Equal entries are not always repeated. One block for each substance: values may come before it.

Tests used:
Assay in all cases: cell-based or functional assay
[1] = biological target: truncated rat PTH-1 receptor rΔNt (rat) (UniProt P25961)
[2] = biological target: human PTH-1 receptor (human) (UniProt Q03431)
[3] = biological target: intact rat PTH-1 receptor with HA epitope tag (rWT-HA) (rat) (UniProt P25961)
intact rat PTH-1 receptor with HA epitope tag (rWT-HA) (rat), sequence (P25961 other isoform, or with tags, fused parts or gaps): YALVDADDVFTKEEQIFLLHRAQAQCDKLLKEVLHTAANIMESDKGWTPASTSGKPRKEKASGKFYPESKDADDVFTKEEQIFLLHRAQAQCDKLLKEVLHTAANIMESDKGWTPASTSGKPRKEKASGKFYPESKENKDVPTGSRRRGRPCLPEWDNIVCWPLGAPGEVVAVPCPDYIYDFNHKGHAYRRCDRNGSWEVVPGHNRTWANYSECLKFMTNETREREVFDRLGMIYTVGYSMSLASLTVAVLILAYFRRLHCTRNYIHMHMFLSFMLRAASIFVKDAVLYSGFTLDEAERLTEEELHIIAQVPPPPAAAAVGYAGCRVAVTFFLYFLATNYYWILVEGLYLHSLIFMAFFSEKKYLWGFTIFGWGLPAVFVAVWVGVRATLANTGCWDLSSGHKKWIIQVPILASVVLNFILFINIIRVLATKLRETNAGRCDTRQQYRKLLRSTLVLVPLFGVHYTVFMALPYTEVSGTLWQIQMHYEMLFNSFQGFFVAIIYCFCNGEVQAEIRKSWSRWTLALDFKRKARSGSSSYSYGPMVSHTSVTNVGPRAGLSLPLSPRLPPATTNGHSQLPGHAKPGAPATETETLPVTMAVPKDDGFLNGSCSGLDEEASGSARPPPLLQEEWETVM

[4] = biological target: intact rat secretin receptor (rat) (UniProt P23811)
intact rat secretin receptor (rat), sequence (P23811 26-449): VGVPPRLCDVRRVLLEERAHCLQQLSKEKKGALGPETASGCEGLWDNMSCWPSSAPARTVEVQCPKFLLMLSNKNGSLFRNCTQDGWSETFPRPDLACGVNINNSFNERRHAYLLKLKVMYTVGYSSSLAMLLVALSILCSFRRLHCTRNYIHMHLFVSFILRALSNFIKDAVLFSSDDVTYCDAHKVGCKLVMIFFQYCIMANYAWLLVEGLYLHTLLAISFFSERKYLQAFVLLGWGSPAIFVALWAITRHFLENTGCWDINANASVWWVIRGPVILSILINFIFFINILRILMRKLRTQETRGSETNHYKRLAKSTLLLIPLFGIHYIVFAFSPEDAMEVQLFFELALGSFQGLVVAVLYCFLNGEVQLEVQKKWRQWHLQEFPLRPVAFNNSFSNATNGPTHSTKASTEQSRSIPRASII

human PTH-1 receptor (human), sequence (Q03431 27-593): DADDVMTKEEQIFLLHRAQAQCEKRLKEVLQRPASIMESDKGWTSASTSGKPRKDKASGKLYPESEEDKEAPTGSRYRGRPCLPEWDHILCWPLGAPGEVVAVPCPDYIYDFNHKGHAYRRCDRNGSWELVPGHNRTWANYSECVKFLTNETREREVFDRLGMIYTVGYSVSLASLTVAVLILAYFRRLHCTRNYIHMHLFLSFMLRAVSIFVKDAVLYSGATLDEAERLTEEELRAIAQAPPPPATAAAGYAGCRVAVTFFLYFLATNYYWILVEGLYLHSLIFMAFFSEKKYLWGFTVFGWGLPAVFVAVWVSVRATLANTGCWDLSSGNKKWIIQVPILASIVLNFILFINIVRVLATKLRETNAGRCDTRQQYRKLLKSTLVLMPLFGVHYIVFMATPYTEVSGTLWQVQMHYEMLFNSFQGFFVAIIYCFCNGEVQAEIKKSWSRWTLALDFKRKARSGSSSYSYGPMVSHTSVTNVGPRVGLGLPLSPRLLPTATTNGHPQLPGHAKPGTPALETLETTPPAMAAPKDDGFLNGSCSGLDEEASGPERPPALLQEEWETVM
truncated rat PTH-1 receptor rΔNt (rat), sequence (P25961 other isoform, or with tags, fused parts or gaps mutant): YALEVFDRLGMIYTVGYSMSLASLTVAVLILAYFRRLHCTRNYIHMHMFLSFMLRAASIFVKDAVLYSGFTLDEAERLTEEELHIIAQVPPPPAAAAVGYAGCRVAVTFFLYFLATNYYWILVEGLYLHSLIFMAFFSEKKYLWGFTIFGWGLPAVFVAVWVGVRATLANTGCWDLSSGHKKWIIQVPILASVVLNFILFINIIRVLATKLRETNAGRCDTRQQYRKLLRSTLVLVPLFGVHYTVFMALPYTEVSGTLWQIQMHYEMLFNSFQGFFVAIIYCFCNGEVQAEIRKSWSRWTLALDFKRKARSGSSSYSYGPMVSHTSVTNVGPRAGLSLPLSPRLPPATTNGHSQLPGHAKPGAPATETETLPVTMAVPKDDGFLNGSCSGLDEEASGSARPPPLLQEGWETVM

- decrease in cAMP potency compared with rWT-HA [1]: 100 fold
- EC50 of the cAMP response [2]: 2 nM
- increase in intracellular cAMP levels relative to the basal cAMP level [2]: 50 fold
- maximum cAMP response [2]: 254 pmole/well
Substance: [Nle8,21,Tyr34]rPTH-(1-34)NH2 (from UniProt P04089 32-65) (peptide)

- reduction of the cAMP efficacy of the agonist PTH(1-14) [3]: < 70%
- reduction of the cAMP efficacy of the agonist PTH(1-34) [3]: < 70%
Substance: [Leu11,D-Trp12]hPTHrP(7-34)NH2 (from UniProt P12272 43-70) (peptide)

- cAMP formation over the basal level [2]: 20 fold
- dose required for cAMP activation relative to PTH(1-34) (orders of magnitude) [2]: 5 and 6
Substance: rat PTH(1-15) (from UniProt P04089 32-46) (peptide)

- increase in cAMP levels [4]: 50 fold
Substance: secretin(1-27) (peptide)
